Measurements from patent US20120201854A1 (INDUSTRY FOUNDATION OF CHONNAM NATIONAL UNIVERSITY, published 2012).
Where a chain is given by its changes, count along the chain named. Names and notes keep the numbering of the source.

B1: flagellin mutant (N153W) of V. vulnificus flagellin FlaB (ligand)
chain: MAVNVNTNVAAMTAQRYLNNANSAQQTSMERLSSGFKINSAKDDAAGLQISNRLNVQSRGLDVAVRNANDGISIAQTAEGAMNETTNILQRMRDLSLQSANGSNSKSERVAIQEEVTALNDELNRIAETTSFGGNKLLNGTYGTKAMQIGADWGEAVMLSLKDMRSDNVMMGGVSYQAEEGKDKNWNVAAGDNDLTIALTDSFGNEQEIEINAKAGDDIEELATYINGQTDLVKASVGEGGKLQIFAGNNKVQGEIAFSGSLAGELGLGEGKNVTVDTIDVTTVQGAQESVAIVDAALKYVDSHRAELGAFQNRFNHAISNLDNINENVNASKSRIKDTDFAKETTQLTKTQILSQASSSILAQAKQAPNSALSLLG
notes: Recombinant, from pTYB12 intein fusion in E. coli ER2566
B2: flagellin mutant (L97W) of V. vulnificus flagellin FlaB (ligand)
chain: B1 chain with L97W, W153N
notes: as for B1
B3: flagellin mutant (A151W) of V. vulnificus flagellin FlaB (ligand)
chain: B1 chain with A151W, W153N
notes: as for B1
B4: flagellin mutant (N135D) of V. vulnificus flagellin FlaB (ligand)
chain: B1 chain with N135D, W153N
notes: as for B1
B5: flagellin mutant (N101A) of V. vulnificus flagellin FlaB (ligand)
chain: B1 chain with N101A, W153N
notes: as for B1
B6: flagellin mutant (R93A) of V. vulnificus flagellin FlaB (ligand)
chain: B1 chain with R93A, W153N
notes: as for B1
B7: flagellin mutant (D70A/N135D) of V. vulnificus flagellin FlaB (ligand)
chain: B1 chain with D70A, N135D, W153N
notes: Recombinant, from pTYB12 intein fusion in E. coli ER2566; also called dual site-directed mutant flagellin
B8: flagellin mutant (D70A) of V. vulnificus flagellin FlaB (ligand)
chain: B1 chain with D70A, W153N
notes: Recombinant, expressed in E. coli ER2566 from pTYB12 as intein fusion, released with DTT
B9: flagellin mutant (V291W) of V. vulnificus flagellin FlaB (ligand)
chain: B1 chain with W153N, V291W
notes: as for B1
B10: flagellin mutant (S103W) of V. vulnificus flagellin FlaB (ligand)
chain: B1 chain with S103W, W153N
notes: as for B1
B11: flagellin mutant (E108A) of V. vulnificus flagellin FlaB (ligand)
chain: B1 chain with E108A, W153N
notes: as for B1

Target: toll-like receptor-5 (hTLR5) expressed in 293T cells from p3xFlag-hTLR5 plasmid (human (printed only as hTLR5), UniProt O60602 21-858)
Sequence (O60602 21-858): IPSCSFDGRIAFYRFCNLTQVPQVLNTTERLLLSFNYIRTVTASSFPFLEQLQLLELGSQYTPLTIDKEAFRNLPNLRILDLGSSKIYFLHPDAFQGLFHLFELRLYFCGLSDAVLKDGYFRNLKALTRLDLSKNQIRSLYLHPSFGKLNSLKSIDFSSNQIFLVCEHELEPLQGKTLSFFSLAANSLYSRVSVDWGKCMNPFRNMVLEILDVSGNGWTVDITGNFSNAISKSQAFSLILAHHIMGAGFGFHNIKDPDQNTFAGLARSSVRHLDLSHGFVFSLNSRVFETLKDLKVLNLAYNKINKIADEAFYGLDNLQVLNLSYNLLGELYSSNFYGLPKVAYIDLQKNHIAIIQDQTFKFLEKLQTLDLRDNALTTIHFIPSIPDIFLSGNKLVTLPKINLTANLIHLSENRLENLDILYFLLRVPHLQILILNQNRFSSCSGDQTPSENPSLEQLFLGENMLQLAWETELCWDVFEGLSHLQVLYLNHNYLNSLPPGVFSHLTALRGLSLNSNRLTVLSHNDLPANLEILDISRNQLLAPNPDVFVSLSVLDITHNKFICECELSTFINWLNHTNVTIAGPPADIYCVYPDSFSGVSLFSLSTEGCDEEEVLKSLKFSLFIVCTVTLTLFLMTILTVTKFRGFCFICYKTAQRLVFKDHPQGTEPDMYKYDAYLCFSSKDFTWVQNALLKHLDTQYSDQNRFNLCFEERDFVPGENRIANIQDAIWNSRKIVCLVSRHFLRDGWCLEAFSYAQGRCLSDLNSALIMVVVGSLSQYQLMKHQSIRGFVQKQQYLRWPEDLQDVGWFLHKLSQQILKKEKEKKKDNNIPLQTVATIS
Assay: cell-based or functional assay

Binder | increase in TLR5-mediated NF-κB transcription activity (luciferase reporter, 293T cells, 20 ng/ml) compared to PBS control
B1 | ~24.5 fold
B2 | ~25 fold
B3 | ~22.5 fold
B4 | ~21.7 fold
B5 | ~22.6 fold
B6 | ~14 fold
B7 | ~14.9 fold
B8 | ~24.6 fold
B9 | ~16.6 fold
B10 | ~23.7 fold
B11 | ~21 fold

Target: the molecule itself
Assay: native-gel electrophoresis, self-association in aqueous solution

Binder | binding result
B1 | binds
B2 | binds
B3 | binds
B4 | binds
B5 | binds
B6 | binds
B7 | binds
B8 | binds
B9 | binds
B10 | binds
B11 | binds
